Laboratory results as given in patent publication US11834499 (University of California, dated 2023).

Assays:
[1] = molecular target: T1, human Claudin-18.2 (CLDN18.2) (human); experiment: KinExA, cell-based; HEK293T-CLDN18.2-mGFP C12, Versene; Error% 7.72; 95% CI 0.18nM - 11.91nM; equilibrium curves 500pM and 10nM
T1 construct: On cells: fused to GFP in engineered HEK293T cells (clone C12), endogenous in HUPT4 and SNU601 cells; also called human CLDN18.2
Description: (§1) For each KD measurement, in general, at least two antibody concentration curves were prepared using the same batch of cells (same passage) to avoid changes in expression level from passage to passage. Briefly, either HEK293T CLDN18.2-mGFP C12 cells (engineered overexpression cell line) or HUPT4 cells (native positive cell line) were detached using Versene. Cells were then equilibrated in different concentrations of the antibody solutions, respectively, in 2% FBS/DMEM or 2% FBS/RPMI at 4° C. overnight. Cells concentrations started with 1.8 ×10^7 cells/ml and 2-fold serial dilution was performed to 10 points. In addition, antibody solution only (Signal 100%) and nonspecific binding (NSB) buffer only were included in each curve. Next day, spin the cells at 1500 rpm for 10 mins and saved the supernatant for measurement. […] The KD and antigen expression level were calculated using two antibody curves analyzed by n-curve analysis.

[2] = molecular target: T1, human Claudin-18.2 (CLDN18.2); experiment: flow cytometry; HEK293T CLDN18.2 over HEK293T parental [Cont.]
Description: (§2) The samples were then measured by Intellicyt® iQue Advanced Flow Cytometry Platform.

[3] = molecular target: T1, human Claudin-18.2 (CLDN18.2); experiment: flow cytometry; HUPT4 over M202 [Cont.]
Description: as §2

[4] = molecular target: T1, human Claudin-18.2 (CLDN18.2); experiment: KinExA, cell-based; HUPT4, Versene; Error% 2.72; 95% CI 0.58nM - 1.43nM; equilibrium curves 1nM, 20nM
Description: as §1

[5] = molecular target: T1, human Claudin-18.2 (CLDN18.2); experiment: KinExA, cell-based; HEK293T-CLDN18.2-mGFP C12, Versene; Error% 7.19; 95% CI 0.43nM - 6.90nM; equilibrium curves 500pM and 10nM
Description: as §1

[6] = molecular target: T1, human Claudin-18.2 (CLDN18.2); experiment: KinExA, cell-based; HUPT4, Versene; Error% 3.90; 95% CI 0.28nM - 1.32nM; equilibrium curves 1nM, 20nM
Description: as §1

| Kd [1] [nM] | ratio OE [2] | ratio native [3] | Kd [4] [nM] | Kd [5] [nM] | Kd [6] [nM] | Binder |
| --- | --- | --- | --- | --- | --- | --- |
| 1.42 | 482 | 137 | 0.93 |  |  | 02-0307-h6 (antibody, V domains shown, Humanized IgG (detected with anti-human IgG Fc)) VH: EVQLLESGGGLVQPGGSLRLSCAASGFTFSSYTMSWVRQAPGKGLEWVATIIIGGSYTYYADSVKGRFTISRDNSKNTLYLQMNSLRAEDTAVYYCTRLVKGNAMDYWGQGTLVTVSS VL: DIVMTQSPDSLAVSLGERVTMNCKSSQSLLSSGNQKNYLSWYQQKPGQPPKLLFYWASTRESGVPDRFSGSGSGTDFTLTISSVQAEDVAVYYCQNDYSYPFTFGQGTKLEIK |
|  | 574 | 111 |  | 1.81 | 0.67 | 02-0358-h5 (antibody, V domains shown, Humanized IgG) VH: EVQLVESGGGLVQPGGSLRLSCAVSGFTFSSFGMHWVRQAPGKGLEWVAYISSGTTNIYYADSVKGRFTVSRDNAKNSLYLQMNSLRAEDTAVYYCVRSGYYGNSLDYWGQGTLVTVSS VL: DIVMTQSPDSLAVSLGERVTMNCKSSQSLFSSGNQRNYLTWYQQKPGQPPKLLIYWASTRESGVPDRFSGSGSGTDFTLTISSVQAEDVAVYYCQNVYIYPLTFGQGTKLEIK |
